Assay results: article PMC9929470

Key:
[1] = biological target: recombinant N1 (neuraminidase subtype 1 head domain of A/Brisbane/02/2018 (H1N1) fused to the tetrabrachion tetramerization domain) (not stated | influenza A virus A/Brisbane/02/2018 (H1N1)) (UniProt Q54436); test: SEC
[2] = biological target: recombinant N1 (neuraminidase subtype 1 head domain of A/Brisbane/02/2018 (H1N1) fused to the tetrabrachion tetramerization domain) (not stated | influenza A virus A/Brisbane/02/2018 (H1N1)) (UniProt Q54436); test: SEC-MALS; AdvanceBio SEC 300-Å column connected to a DAWN8 detector, 0.3 ml/min, PBS pH 7.2
[3] = biological target: recombinant N2 (neuraminidase subtype 2 head domain of A/Kansas/14/2017 (H3N2) fused to the tetrabrachion tetramerization domain) (not stated | influenza A virus A/Kansas/14/2017 (H3N2)) (UniProt Q54436); test: SEC
[4] = biological target: recombinant N2 (neuraminidase subtype 2 head domain of A/Kansas/14/2017 (H3N2) fused to the tetrabrachion tetramerization domain) (not stated | influenza A virus A/Kansas/14/2017 (H3N2)) (UniProt Q54436); test: SEC-MALS; AdvanceBio SEC 300-Å column connected to a DAWN8 detector, 0.3 ml/min, PBS pH 7.2

Substance | stoichiometry N [1] | stoichiometry N [2] | stoichiometry N [3] | stoichiometry N [4]
recombinant N1 (neuraminidase subtype 1 head domain of A/Brisbane/02/2018 (H1N1) fused to the tetrabrachion tetramerization domain) (from UniProt Q54436 1238-1286) (enzyme) | 4 | 4 |  | 
recombinant N2 (neuraminidase subtype 2 head domain of A/Kansas/14/2017 (H3N2) fused to the tetrabrachion tetramerization domain) (from UniProt Q54436 1238-1286) (enzyme) |  |  | 4 | 4
